Results on 2 substances are retold here after publication doi:10.1101/2022.06.07.494932.

Assay [1] concerns the target α-Synuclein A53T, unlabelled (human) (UniProt P37840). Nature of the assay: ELISA. Background: In an ELISA, binding on a coated surface is turned into a signal by an enzyme label.
Assay [2] concerns the target α-Synuclein WT, unlabelled (human) (UniProt P37840). In words: ELISA.

On to “α-Synuclein A53T, unlabelled (from UniProt P37840 1-140) (natural protein)”, for which the intracellular α-Syn oligomer concentration after 3 days in assay [1] came out at 16.3 nM. In assay [2], “α-Synuclein WT, unlabelled (from UniProt P37840 1-140) (natural protein)” returned an intracellular α-Syn oligomer concentration after 1 day of 12.3 nM and an intracellular α-Syn oligomer concentration after 3 days of 13.1 nM.
